The target in experiment [1] is Aβ(M1-42) (human). The experiment in a line: cell-based or functional assay.
In experiment [2] the target is Aβ(M1-40) (human). The experiment in a line: cell-based or functional assay.
Chain of Aβ(M1-40) (human) (peptide, as listed by the source): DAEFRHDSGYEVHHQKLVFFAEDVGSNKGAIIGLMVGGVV

Chain of Aβ(M1-42) (human) (peptide, as listed by the source): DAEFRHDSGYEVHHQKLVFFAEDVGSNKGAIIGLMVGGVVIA

Regarding “human anti-thrombin (from UniProt P01008 33-464)”, the effect on Aβ42 aggregation (ThT assay) (molar equivalents) in experiment [1] turned out to be 0.1. Moreover, the molar equivalents needed for the same inhibition of Aβ40 aggregation (ThT assay) (molar equivalents) in experiment [2] came out at 0.01.
